This note sets out measurements from article PMC11748629, “Unidirectional MCM translocation away from ORC drives origin licensing” (Nature Communications, 2025).

Holding throughout (assay): negative stain EM with 2D averaging; DH loading reaction in solution, no downstream purification: 10 nM MH-NCP-ARS1-NCP DNA, 20 nM ORC, 30 nM Cdc6, 0.5 mM ATP, 20 nM MCM-Cdt1; 25 mM HEPES pH 7.6, 100 mM potassium chloride, 10 mM magnesium acetate, 1 mM DTT; 30 °C, 30 min; DH counted as % of averageable MCM particles, N = 3; assemblies form on DNA
Assay [1] concerns the target MCM-Cdt1 complex with Mcm2 R676A (Arginine Finger variant) (Saccharomyces cerevisiae) (UniProt P29469).
Assay [2] has as its target MCM-Cdt1 complex with Mcm3 R542A (Arginine Finger variant) (Saccharomyces cerevisiae) (UniProt P29469).
Assay [3] addresses MCM-Cdt1 complex with Mcm4 R701A (Arginine Finger variant) (Saccharomyces cerevisiae) (UniProt P29469).
The target of assay [4] is MCM-Cdt1 complex with Mcm6 R708A (Arginine Finger variant) (Saccharomyces cerevisiae) (UniProt P29469).
Assay [5] concerns the target MCM-Cdt1 complex with Mcm7 R593A (Arginine Finger variant) (Saccharomyces cerevisiae) (UniProt P29469).
Assay [6] concerns the target MCM-Cdt1 complex, wild type (expressed in yeast) (Saccharomyces cerevisiae) (UniProt P29469).

The substance “MCM-Cdt1 complex with Mcm2 R676A (Arginine Finger variant), P29469 1-868; P24279 1-971; P30665 1-933; P29496 1-775; P53091 1-1017; P38132 1-845; P47112 1-604” yielded a DH as % of averageable MCM particles in assay [1] of 0.5%.

Consider “MCM-Cdt1 complex with Mcm3 R542A (Arginine Finger variant), P29469 1-868; P24279 1-971; P30665 1-933; P29496 1-775; P53091 1-1017; P38132 1-845; P47112 1-604”, for which the DH as % of averageable MCM particles in assay [2] was 13.9%.

In turn, “MCM-Cdt1 complex with Mcm4 R701A (Arginine Finger variant), P29469 1-868; P24279 1-971; P30665 1-933; P29496 1-775; P53091 1-1017; P38132 1-845; P47112 1-604” gave a DH as % of averageable MCM particles in assay [3] of 22.4%.

As to “MCM-Cdt1 complex with Mcm6 R708A (Arginine Finger variant), P29469 1-868; P24279 1-971; P30665 1-933; P29496 1-775; P53091 1-1017; P38132 1-845; P47112 1-604”, the DH as % of averageable MCM particles in assay [4] was 2.4%.

“MCM-Cdt1 complex with Mcm7 R593A (Arginine Finger variant), P29469 1-868; P24279 1-971; P30665 1-933; P29496 1-775; P53091 1-1017; P38132 1-845; P47112 1-604” had a DH as % of averageable MCM particles in assay [5] of 5.3%.

In turn, “MCM-Cdt1 complex, wild type (expressed in yeast), P29469 1-868; P24279 1-971; P30665 1-933; P29496 1-775; P53091 1-1017; P38132 1-845; P47112 1-604” came in with a DH as % of averageable MCM particles in assay [6] of 56.5%.
